Results as given in patent US20160355591A1 (published 2016).

What was measured:
[1] = target: T1, HLA-DR (human leukocyte antigen-DR) on human lymphoma and leukemia cells and human lymphocytes (human, UniProt P01903 26-254; P01911 30-266); experiment: direct cell surface saturation binding of 125I-labeled antibody to Daudi cells, 4 C, Scatchard plot; apparent dissociation constant
T1 construct: whole, on cells; Natural antigen on Raji, Daudi, Ramos, Namalwa and other cell lines; also called cell surface antigen (Ag) recognized by L243
Method: The cell-associated radioactivity was counted, specific binding of radiolabeled antibody to the cell surface antigen calculated, and Scatchard plot analysis was then applied to determine the maximum number of binding sites per cell and the apparent antigen-binding affinity constant.
To measure specific cell surface antigen binding, two sets of cells were prepared and used in the binding assay to estimate the non-specific and total binding of radioactivities, respectively. The cells for non-specific binding were pre-incubated with excess amount of unlabled Ab to block all surface antigen sites prior to adding the radiolabeled antibody, while those for total binding were pre-incubated in PBS. […] The cell-associated radioactivity was counted. The specific cell surface binding of the radiolabeled antibody at a given concentration of radiolabeled antibody was calculated as: the counts of total binding minus the counts of non-specific binding.

[2] = target: T1, HLA-DR (human leukocyte antigen-DR) on …; experiment: competition cell-binding assay, unlabeled antibody against 125I-labeled L243 antibody on human lymphoma cells (FIG. 6: Raji)
Method: (§1) Unbound Abs were removed by washing the cells in PBS. The radioactivity associated with cells was determined after washing.

[3] = target: T1, HLA-DR (human leukocyte antigen-DR) on …; experiment: competition cell-binding assay on human lymphoma cells; reference mL243
Method: as §1

Binder	Kd [1] [nM]	EC50 [2] [nM]	fold stronger binding avidity than mL243 [3] [fold]
hL243γ4P (IMMU-114; humanized L243, IgG4/K isotype with Ser241Pro hinge mutation) (antibody, V domains shown, Same V regions as hL243; also called hL243g4P; hL243gamma4P) VH: QVQLQQSGSELKKPGASVKVSCKASGFTFTNYGMNWVKQAPGQGLKWMGWINTYTREPTYADDFKGRFAFSLDTSVSTAYLQISSLKADDTAVYFCARDITAVVPTGFDYWGQGSLVTVSS VL: DIQLTQSPSSLSASVGDRVTITCRASENIYSNLAWYRQKPGKAPKLLVFAASNLADGVPSRFSGSGSGTDYTFTISSLQPEDIATYYCQHFWTTPWAFGGGTKLQIKR	2.6	~7	~2
mL243 (murine L243 anti-HLA-DR monoclonal antibody, IgG2a, ATCC HB55) (antibody, V domains shown, Murine IgG2a from hybridoma ATCC HB55; also called mL234; L234) VH: QIQLVQSGPELKKPGETVKISCKASGFTFTNYGMNWVKQAPGKGLKWMGWINTYTREPTYADDFKGRFAFSLETSASTAYLQINNLKNEDTAKYFCARDITAVVPTGFDYWGQGTTLTVSS VL: DIQMTQSPASLSVSVGETVTITCRASENIYSNLAWYRQKQGKSPQLLVFAASNLADGVPSRFSGSGSGTQYSLKINSLQSEDFGDYYCQHFWTTPWAFGGGTNLEIKR	14	~16.5	
